Like-named read-outs stand apart in the source and are kept apart here.
T1: Human-TNFR2-His (manufacturer: SINO, CAT: 10417-H08H) (human, UniProt P20333 23-257)
T1 construct: Bought protein; also called human TNFR2 protein; TNFR2 protein; not shown: His tag
T1 sequence (looked up): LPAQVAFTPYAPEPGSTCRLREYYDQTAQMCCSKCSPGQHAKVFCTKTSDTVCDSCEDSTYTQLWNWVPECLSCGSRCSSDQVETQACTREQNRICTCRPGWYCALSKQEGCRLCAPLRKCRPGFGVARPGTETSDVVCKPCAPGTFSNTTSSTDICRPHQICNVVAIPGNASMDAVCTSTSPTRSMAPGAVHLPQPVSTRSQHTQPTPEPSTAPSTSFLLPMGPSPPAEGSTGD

T2: Human-B7H3 His (manufacturer: Acro, CAT: TB73-H52E2) (human, UniProt Q5ZPR3-2 29-245)
T2 construct: also called human B7H3 protein; B7H3 protein; not shown: His tag
T2 sequence (looked up): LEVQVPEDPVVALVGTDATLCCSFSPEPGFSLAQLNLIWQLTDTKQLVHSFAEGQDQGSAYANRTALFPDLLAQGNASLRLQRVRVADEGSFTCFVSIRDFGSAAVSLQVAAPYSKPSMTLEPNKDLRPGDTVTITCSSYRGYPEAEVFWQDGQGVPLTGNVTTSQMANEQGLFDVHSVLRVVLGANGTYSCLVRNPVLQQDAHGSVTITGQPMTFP


What was measured:
[1] = biological target: T1, Human-TNFR2-His (manufacturer: SINO, …); assay: ELISA: Human-TNFR2-His coated (0.3 µg/mL), antibody titrated, goat anti-human IgG Fc detection, OD450 (Example 2)
Protocol: Human-TNFR2-His (manufacturer: SINO, CAT: 10417-H08H, LOT: LC15NO0412) was diluted to 0.3 μg/mL with a coating solution (1×PBS, pH7.4), and coated into a 96-well ELISA plate at 100 μL/well overnight at 4° C. The coating solution was poured off. Each well was washed with 1×PBST at 300 μL, washed 4 times with a plate washer, and patted dry on a flat paper. It was blocked with 3% skim milk powder at 300 μL/well, and incubated at 37° C. for 1 h. The blocking solution was poured off, washed 4 times with a plate washer, and patted dry on a flat paper. Negative control and positive control were set up. […] The positive control and antibody were diluted to 10 μg/mL with 3% skim milk powder as the starting concentration, and then diluted by 3-fold gradient (11 gradients in total). A blank well was set up and only the diluent was added. It was incubated at 37° C. for 1 h at 100 μL/well. The liquid in the well was discarded, washed 4 times with a plate washer, and patted dry on a flat paper. Goat anti-human IgG Fc was diluted with 3% skim milk powder at 1:20000, and incubated at 37° C. for 1 h at 100 μL/well. It was washed 6 times with a plate washer, and patted dry on a flat paper. TMB color developing solution was added at 100 μL/well, and wrapped with aluminum foil. Color development was performed at 37° C. in the dark for 8 min. Termination solution 1M HCl was added to terminate the color development reaction at 100 μL/well. Readings were taken at 450 nm on an ELISA reader.

[2] = biological target: T2, Human-B7H3 His (manufacturer: Acro, …); assay: ELISA: Human-B7H3 His coated (0.3 µg/mL), antibody titrated, goat anti-human IgG Fc detection, OD450 (Example 3)
Protocol: (§1) Human-B7H3 His (manufacturer: Acro, CAT: TB73-H52E2, LOT: 2052-21AXF1-YS) was diluted to 0.3 μg/mL with a coating solution (1×PBS, pH7.4), and coated into a 96-well ELISA plate at 100 μL/well overnight at 4° C. The coating solution was poured off. Each well was washed with 1×PBST at 300 μL, washed 4 times with a plate washer, and patted dry on a flat paper. It was blocked with 3% skim milk powder at 300 μL/well, and incubated at 37° C. for 1 h. The blocking solution was poured off, washed 4 times with a plate washer, and patted dry on a flat paper. Negative control and positive control were set up. […] The variable region of the antibody sequence of the positive control consists of SEQ ID NO: 1 and SEQ ID NO: 5, with the constant region of human IgG1 added (SEQ ID NO: 85 and SEQ ID NO: 86). The positive control and antibody were diluted to 10 μg/mL with 3% skim milk powder as the starting concentration, and then diluted by 3-fold gradient (11 gradients in total). A blank well was set up and only the diluent was added. It was incubated at 37° C. for 1 h at 100 μL/well. The liquid in the well was discarded, washed 4 times with a plate washer, and patted dry on a flat paper. Goat anti-human IgG Fc was diluted with 3% skim milk powder at 1:20000, and incubated at 37° C. for 1 h at 100 μL/well. It was washed 6 times with a plate washer, and patted dry on a flat paper. TMB color developing solution was added at 100 μL/well, and wrapped with aluminum foil. Color development was performed at 37° C. in the dark for 8 min. Termination solution 1M HCl was added to terminate the color development reaction at 100 μL/well. Readings were taken at 450 nm on an ELISA reader.

[3] = biological target: T2, Human-B7H3 His (manufacturer: Acro, …); assay: as above; remark: listed apart in the source
Protocol: as §1

[4] = biological target: T1, Human-TNFR2-His (manufacturer: SINO, …); assay: flow cytometry, bridging: CHOK1-18.2 cells (human Claudin18.2) + 150 nM antibody + human TNFR2-His, anti-His FITC detection
Protocol: Human TNFR2 protein (SINO, CAT: 10417-H08H) was sequentially added into 96-well plate with 100 μL/well, and after mixing, the 96-well plate was incubated at 4° C. for 1 h. Pre-cooled dilution was added and washed once, centrifuged (3000 rpm, 3 min), and the supernatant was discarded, and the cells were harvested. Fluorescent secondary antibody Anti-6X-his tag antibody (FITC) (manufacturer: abcam, Cat. No.: ab1206, Lot No.: GR3420599-3) was taken and diluted at the used concentration of 1:500. 100 μL of dilution was added to the blank control group, and 100 μL of fluorescent secondary antibody dilution was added to the rest of the sample groups respectively. After incubation for 0.5 h at room temperature and 4° C. protected from light, PBS was added to wash and centrifuged (3000 rpm, 3 min) twice. After discarding the supernatant, 80 μL of the dilution was added and resuspended.

| Binder | binding result [1] | EC50 (read off the curve) [2] [nM] | EC50 (read off the curve) [3] [nM] | E1 Mean FITC-A [4] |
| --- | --- | --- | --- | --- |
| TB-C2 (bispecific antibody, human IgG4 S228P, kappa, also called antibody TB-C2) light: DIVMTQSPATLSVTPGDRVSLSCRASQSISDYLHWYQQKSHESPRLLIKYASQSISGIPSRFSGSGSGSDFTLSINSVEPEDVGVYYCQNGHSFPLTFGAGTKLELKRTVAAPSVFIFPPSDEQLKSGTASVVCLLNNFYPREAKVQWKVDNALQSGNSQESVTEQDSKDSTYSLSSTLTLSKADYEKHKVYACEVTHQGLSSPVTKSFNRGEC heavy: not shown | binds | ~2 | – | – |
| TB-D2 (bispecific antibody, human IgG4 S228P, kappa, also called antibody TB-D2) light: DIVMTQSPATLSVTPGDRVSLSCRASQSISDYLHWYQQKSHESPRLLIKYASQSISGIPSRFSGSGSGSDFTLSINSVEPEDVGVYYCQNGHSFPLTFGAGTKLELKRTVAAPSVFIFPPSDEQLKSGTASVVCLLNNFYPREAKVQWKVDNALQSGNSQESVTEQDSKDSTYSLSSTLTLSKADYEKHKVYACEVTHQGLSSPVTKSFNRGEC heavy: not shown | binds | ~1 | – | – |
| Positive Control (antibody, V domains shown) VH: QVQLQQSGAELVKPGASVKLSCKASGYTFTNYDINWVRQRPEQGLEWIGWIFPGDGSTQYNEKFKGKATLTTDTSSSTAYMQLSRLTSEDSAVYFCARQTTATWFAYWGQGTLVTVSA VL: DIVMTQSPATLSVTPGDRVSLSCRASQSISDYLHWYQQKSHESPRLLIKYASQSISGIPSRFSGSGSGSDFTLSINSVEPEDVGVYYCQNGHSFPLTFGAGTKLELK | – | ~0.2 | ~0.3 | – |
| TC-E2 (bispecific antibody, human IgG1, kappa) light: EIVMTQSPPTLSLSPGERVTLSCKSSQSLLNSGNQKNYLTWYQQKPGQAPRLLIYWASTRESSIPARFSGSGSGTDFTLTISSLQPEDFAVYYCQNNYIYPLTFGGGTKLELKRTVAAPSVFIFPPSDEQLKSGTASVVCLLNNFYPREAKVQWKVDNALQSGNSQESVTEQDSKDSTYSLSSTLTLSKADYEKHKVYACEVTHQGLSSPVTKSFNRGECGGGGSGGGGSEVQLVQSGAEVKKPGATVKISCKVSGYSITDYLLHWVQQAPGKCLEWMGWIDPEDAKTKYGQKFQSRVTITADTSTDTAYMELSSLRSEDTAVYYCAANSGTGTMDAWGQGTLVTVSSGGGGSGGGGSGGGGSDIVMTQSPATLSVSPGERATLSCKASQNVGSNVDWYQQKPGQSPRVLIYKASIRYTGIPARFSGSGSGTEFTLTISILQSEDFAVYFCMQSKSYPITFGCGTKLEIK heavy: not shown | – | – | – | 260000 |
| TC-F2 (bispecific antibody, human IgG1, kappa) light: EVQLVQSGAEVKKPGATVKISCKVSGYSITDYLLHWVQQAPGKCLEWMGWIDPEDAKTKYGQKFQSRVTITADTSTDTAYMELSSLRSEDTAVYYCAANSGTGTMDAWGQGTLVTVSSGGGGSGGGGSGGGGSDIVMTQSPATLSVSPGERATLSCKASQNVGSNVDWYQQKPGQSPRVLIYKASIRYTGIPARFSGSGSGTEFTLTISILQSEDFAVYFCMQSKSYPITFGCGTKLEIKGGGGSGGGGSGGGGSEIVMTQSPPTLSLSPGERVTLSCKSSQSLLNSGNQKNYLTWYQQKPGQAPRLLIYWASTRESSIPARFSGSGSGTDFTLTISSLQPEDFAVYYCQNNYIYPLTFGGGTKLELKRTVAAPSVFIFPPSDEQLKSGTASVVCLLNNFYPREAKVQWKVDNALQSGNSQESVTEQDSKDSTYSLSSTLTLSKADYEKHKVYACEVTHQGLSSPVTKSFNRGEC heavy: not shown | – | – | – | 248000 |
| TC-A2 (bispecific antibody, human IgG1, kappa) light: EIVMTQSPPTLSLSPGERVTLSCKSSQSLLNSGNQKNYLTWYQQKPGQAPRLLIYWASTRESSIPARFSGSGSGTDFTLTISSLQPEDFAVYYCQNNYIYPLTFGGGTKLELKRTVAAPSVFIFPPSDEQLKSGTASVVCLLNNFYPREAKVQWKVDNALQSGNSQESVTEQDSKDSTYSLSSTLTLSKADYEKHKVYACEVTHQGLSSPVTKSFNRGEC heavy: not shown | – | – | – | 217000 |
| TC-B2 (bispecific antibody, human IgG1, kappa) light: EIVMTQSPPTLSLSPGERVTLSCKSSQSLLNSGNQKNYLTWYQQKPGQAPRLLIYWASTRESSIPARFSGSGSGTDFTLTISSLQPEDFAVYYCQNNYIYPLTFGGGTKLELKRTVAAPSVFIFPPSDEQLKSGTASVVCLLNNFYPREAKVQWKVDNALQSGNSQESVTEQDSKDSTYSLSSTLTLSKADYEKHKVYACEVTHQGLSSPVTKSFNRGEC heavy: not shown | – | – | – | 139000 |
